Here are results for six molecules from article doi:10.1101/2020.07.09.174003 (bioRxiv, 2020).

Test [1] concerns the target Deinococcus radiodurans phytochrome (DrBphP) photosensory module, biliverdin-bound, with C-terminal AviTag and HisTag (Deinococcus radiodurans). The test can be described thus: SEC. In general terms: Size exclusion chromatography separates by hydrodynamic size, large species first.
In test [2] the target is Rhodopseudomonas palustris BphP1 (RpBphP1), mammalian two-hybrid fusion (Rhodopseudomonas palustris). Put plainly: two-hybrid.
In test [3] the target is DrBphP photosensory module, biliverdin-bound, yeast two-hybrid bait (Deinococcus radiodurans (entry strain …, UniProt Q9RZA4, biliverdin-bound)). The test can be described thus: two-hybrid.
DrBphP photosensory module, biliverdin-bound, yeast two-hybrid bait (Deinococcus radiodurans, sequence (Q9RZA4 whole entry, looked up, tested part not stated): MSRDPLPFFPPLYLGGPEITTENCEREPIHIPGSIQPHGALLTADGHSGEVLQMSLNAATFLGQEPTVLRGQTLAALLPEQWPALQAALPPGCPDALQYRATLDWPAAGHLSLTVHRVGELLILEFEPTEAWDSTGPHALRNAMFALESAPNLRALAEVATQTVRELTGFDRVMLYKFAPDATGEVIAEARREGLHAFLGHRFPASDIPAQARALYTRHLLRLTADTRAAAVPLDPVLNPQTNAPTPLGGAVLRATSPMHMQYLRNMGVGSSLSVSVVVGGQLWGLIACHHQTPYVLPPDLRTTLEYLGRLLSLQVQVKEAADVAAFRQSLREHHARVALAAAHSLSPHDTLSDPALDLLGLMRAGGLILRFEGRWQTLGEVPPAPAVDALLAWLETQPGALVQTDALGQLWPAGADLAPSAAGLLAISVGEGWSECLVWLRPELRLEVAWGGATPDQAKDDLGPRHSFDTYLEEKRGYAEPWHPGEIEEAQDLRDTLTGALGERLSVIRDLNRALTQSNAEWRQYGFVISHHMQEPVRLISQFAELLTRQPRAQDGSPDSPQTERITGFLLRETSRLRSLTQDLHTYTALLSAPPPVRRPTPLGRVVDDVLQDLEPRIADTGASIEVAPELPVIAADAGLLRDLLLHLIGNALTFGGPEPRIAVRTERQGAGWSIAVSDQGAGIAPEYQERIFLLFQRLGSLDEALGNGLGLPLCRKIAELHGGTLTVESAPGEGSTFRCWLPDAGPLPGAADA

As to “Deinococcus radiodurans phytochrome (DrBphP) photosensory module, biliverdin-bound, with C-terminal AviTag and HisTag (domain or fragment)”, the stoichiometry N in test [1] was found to be 2.

“PpsR2, mammalian two-hybrid fusion (natural protein)” displayed a fold increase of luciferase expression, 775-nm light over dark in test [2] of 2.95 fold.

Regarding “Q-PAS1, a truncated form of PpsR2, mammalian two-hybrid fusion (domain or fragment)”, in test [2], the fold increase of luciferase expression, 775-nm light over dark stood at 2.02 fold.

B1: LDB-4 nanobody, yeast two-hybrid prey (VHH)
VHH: EVQLQASGGGFVQPGGSLRLSCAASGDTSYLYSMGWFRQAPGKEREFVSAISWWWNLTQYYADSVKGRFTISRDNSKNTVYLQMNSLRAEDTATYYCAWSIYFPPGNDYNGYHYWGQGTQVTVSS
For the molecule B1, the binding result in test [3] was “binds”.

B2: LDB-6 nanobody, yeast two-hybrid prey (VHH)
VHH: EVQLQASGGGFVQPGGSLRLSCAASGFFSNWSDMGWFRQAPGKEREFVSAISFWADGTEYYADSVKGRFTISRDNSKNTVYLQMNSLRAEDTATYYCAWYGPVNGFYMFDYWGQGTQVTVSS
For the molecule B2, the binding result in test [3] was “binds”.

B3: LDB-7 nanobody, yeast two-hybrid prey (VHH)
VHH: EVQLQASGGGFVQPGGSLRLSCAASGSTSDFESMGWFRQAPGKEREFVSAISSWFTNPPYYADSVKGRFTISRDNSKNTVYLQMNSLRAEDTATYYCAHRSIWYHPTYWGQGTQVTVSS
As to B3, the binding result in test [3] is given as “binds”.

What is called stoichiometry N is a count of units in the complex or per binding partner.
